Laboratory results from US20210301026A1 (ULTRAHUMAN TWELVE, published 2021).
Numbering of substitutions follows the chain as printed. Names may count otherwise.

T1: monomeric cynomolgus monkey CSF1R ectodomain protein (cynomolgus monkey, UniProt P07333 20-517 (human entry))
T1 construct: also called monomeric cyno CSF1R; Cyno CSF1R
T1 chain: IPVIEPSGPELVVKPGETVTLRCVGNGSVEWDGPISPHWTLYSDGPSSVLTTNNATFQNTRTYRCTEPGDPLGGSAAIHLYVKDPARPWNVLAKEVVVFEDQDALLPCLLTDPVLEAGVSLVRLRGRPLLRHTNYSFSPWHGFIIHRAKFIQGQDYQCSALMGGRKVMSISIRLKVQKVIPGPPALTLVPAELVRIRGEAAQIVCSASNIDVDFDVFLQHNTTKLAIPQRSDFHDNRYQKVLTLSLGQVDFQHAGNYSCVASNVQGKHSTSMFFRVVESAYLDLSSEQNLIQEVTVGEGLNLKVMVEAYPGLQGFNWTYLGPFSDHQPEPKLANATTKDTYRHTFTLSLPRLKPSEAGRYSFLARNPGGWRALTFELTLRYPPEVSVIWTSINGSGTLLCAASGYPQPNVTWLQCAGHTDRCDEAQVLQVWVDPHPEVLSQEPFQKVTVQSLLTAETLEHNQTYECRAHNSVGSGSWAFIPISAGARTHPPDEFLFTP

B1: 29A03 (antibody, human IgG4, V domains shown)
VH: QVQLVQSGAEVKKPGSSVKVSCKASGYTFSSNYMIWVRQAPGQGLEWMGDINPYNGGATYNQKFQGRVTITADESTSTAYMELSSLRSEDTAVYYCAREPPYFSNLYVMDYWGQGTLVTVSS
VL: EIVLTQSPATLSLSPGERATLSCRASQSVEYEGENYLNWYQQKPGQAPRLLIYAASNRATGIPARFSGSGSGTDFTLTISSLEPEDFAVYYCQLSNQDLLTFGGGTKVEIK
notes: Library-derived clone, tested as human IgG4(S228P)/Ckappa IgG; framework residue limits counted on the grafts
B2: 30D02 (antibody, human IgG4, V domains shown)
VH: B1 VH with N32Y, A58T, N61A, P100G
VL: B1 VL with E32Q
notes: as for B1
B3: MH4 (antibody, V domains shown)
VH: B1 VH with N32Y, T59N, N61A, P100G
VL: B1 VL with E30S, E32Q, N38A, A54D
notes: Designer clone, human IgG4(S228P)/Ckappa IgG
B4: 29B07 (antibody, human IgG4, V domains shown)
VH: B1 VH with S30T, N32Y, M34I, N61A
VL: B1 VL with E34D
notes: as for B1
B5: MH6 (antibody, V domains shown)
VH: B1 VH with N32Y, T59N, N61A, P100G
VL: B1 VL with E30S, N38A
notes: as for B3
B6: MH17 (antibody, human IgG4, V domains shown)
VH: B1 VH with N32A, T59N, N61A, P100G
VL: B1 VL with E30S, L82P, Q97E
notes: Deimmunized MH5 derivative, human IgG4(S228P)/Ckappa IgG
B7: MH25 (antibody, human IgG4, V domains shown)
VH: B1 VH with N32H, T59N, N61A, P100G
VL: B1 VL with E30S, L82P, Q97E
notes: as for B6
B8: MH29 (antibody, human IgG4, V domains shown)
VH: B1 VH with T59N, N61A, P100G, Q114R
VL: B1 VL with E30S, L82P, Q97E
notes: as for B6
B9: MH20 (antibody, human IgG4, V domains shown)
VH: B1 VH with N32S, T59N, N61A, P100G
VL: B1 VL with E30S, L50S, N57D, L82P, Q97E
notes: as for B6
B10: MH40 (antibody, human IgG4, V domains shown)
VH: B1 VH with N32H, T59N, N61A, P100G, Q114R
VL: B1 VL with E30S, L50S, N57D, L82P, Q97E
notes: as for B6
B11: MH21 (antibody, human IgG4, V domains shown)
VH: B1 VH with N32S, T59N, N61A, P100G
VL: B1 VL with E30S, L82P, Q97E
notes: as for B6
B12: MH12 (antibody, human IgG4, V domains shown)
VH: B1 VH with T59N, N61A, P100G
VL: B1 VL with E30S, L50S, N57D, L82P, Q97E
notes: Deimmunized MH5 derivative, human IgG4(S228P)/Ckappa IgG; also called mAb-4
B13: MH24 (antibody, human IgG4, V domains shown)
VH: B1 VH with N32H, T59N, N61A, P100G
VL: B1 VL with E30S, L50S, N57D, L82P, Q97E
notes: as for B6
B14: MH32 (antibody, human IgG4, V domains shown)
VH: B1 VH with N32A, T59N, N61A, P100G, Q114R
VL: B1 VL with E30S, L50S, N57D, L82P, Q97E
notes: Deimmunized MH5 derivative, human IgG4(S228P)/Ckappa IgG; also called MN32
B15: MH41 (antibody, human IgG4, V domains shown)
VH: B1 VH with N32H, T59N, N61A, P100G, Q114R
VL: B1 VL with E30S, L82P, Q97E
notes: Deimmunized MH5 derivative, human IgG4(S228P)/Ckappa IgG; also called MN41
B16: MH10 (antibody, human IgG4, V domains shown)
VH: B1 VH with T59N, N61A, P100G
VL: B1 VL with E30S, L50S, L51A, L82P, Q97E
notes: as for B6
B17: MH11 (antibody, human IgG4, V domains shown)
VH: B1 VH with T59N, N61A, P100G
VL: B1 VL with E30S, L50A, L51A, L82P, Q97E
notes: as for B6
B18: MH16 (antibody, human IgG4, V domains shown)
VH: B1 VH with N32A, T59N, N61A, P100G
VL: B1 VL with E30S, L50S, N57D, L82P, Q97E
notes: Deimmunized MH5 derivative, human IgG4(S228P)/Ckappa IgG; also called mAb-5
B19: MH37 (antibody, human IgG4, V domains shown)
VH: B1 VH with N32S, T59N, N61A, P100G, Q114R
VL: B1 VL with E30S, L82P, Q97E
notes: as for B6

What follows are binders tested against T2, monomeric human CSF1R ectodomain protein (human, UniProt P07333 20-517) (assay: SPR Biacore, IgG captured, monomeric CSF1R analyte).
T2 construct: also called biotinylated monomeric human CSF1R
Protocol: (§1) Affinity (KD) of purified IgGs was determined via SPR with antigen in-solution on a Biacore 3000 (GE). A mouse anti-human antibody (CH1 specific) was immobilized on a CM5 Sensor Chip to a level of 2000 RU in acetate buffer at pH 4.5 using amine coupling following the Wizard instructions for two channels. One channel was used for background signal correction. The standard running buffer HBS-EP pH 7.4 was used. Regeneration was performed with a single injection of 10 μl of 10 mM Glycine at pH 1.5 at 20 μl/minute. IgG samples were injected for 2 minutes at 50 nM at 30 μl/min followed by and off-rate of 60 seconds. The monomeric ectodomain protein (human CSF1R or cynomolgus monkey CSF1R) was injected in two fold serial dilutions from 100 nM down to 3.1 nM, for 2 minutes at 30 μl/min followed by an off-rate of 300 seconds. The obtained sensorgrams were analysed using the Biacore 3000 evaluation (BIAevaluation) software. The KD was calculated by simultaneous fitting of the association and dissociation phases to a 1:1 Langmuir binding model.
(§2) Biacore analyses of binding affinity were performed for all IgGs to solution-phase, monomeric human and cyno CSF1R proteins (Table 6). […] Affinity differentials of less than 3-fold between human and cyno target orthologs are highly beneficial in pre-clinical drug development analyses as they allow more accurate design and interpretation of e.g. monkey safety, PK and PD modelling experiments.

Kd [nM] | koff [s⁻¹] | kon [M⁻¹ s⁻¹] | Binder
0.39 | 0.0006 | 1.6e+06 | B1
0.48 | 0.00049 | 1e+06 | B2
1.9 | 0.0024 | 1.3e+06 | B3
0.34 | 0.00051 | 1.5e+06 | B4
0.88 | 0.0012 | 1.3e+06 | B5

Target: T1, monomeric cynomolgus monkey CSF1R …
Test: SPR Biacore, IgG captured, monomeric CSF1R analyte
Protocol: as §1, §2

Kd [nM] | koff [s⁻¹] | kon [M⁻¹ s⁻¹] | Binder
1.2 | 0.00032 | 270000 | B1
1.7 | 0.00032 | 190000 | B2
2.9 | 0.0014 | 470000 | B3
0.79 | 0.00025 | 310000 | B4
1.3 | 0.00064 | 510000 | B5

Target: T2, monomeric human CSF1R ectodomain protein
Test: SPR Biacore, IgG captured, monomeric CSF1R analyte
Remark: another data set of the same source
Protocol: as §1

Kd [nM] | koff [s⁻¹] | kon [M⁻¹ s⁻¹] | fold of the affinity of hu0301 [fold] | Binder
0.834 | 0.00112 | 1.35e+06 |  | B6
0.634 | 0.000921 | 1.45e+06 |  | B7
0.562 | 0.000961 | 1.71e+06 |  | B8
0.709 | 0.00177 | 2.49e+06 |  | B9
0.553 | 0.00113 | 2.05e+06 |  | B10
1.23 | 0.00189 | 1.54e+06 |  | B11
0.342 | 0.000832 | 2.43e+06 | ≤ 2 | B12
0.397 | 0.000976 | 2.46e+06 | ≤ 2 | B13
0.62 | 0.00127 | 2.04e+06 |  | B14
0.851 | 0.00109 | 1.28e+06 |  | B15
0.624 | 0.00088 | 1.41e+06 |  | B16
0.776 | 0.00119 | 1.53e+06 |  | B17
0.444 | 0.000897 | 2.02e+06 | ≤ 2 | B18

Target: T1, monomeric cynomolgus monkey CSF1R …
Test: SPR Biacore, IgG captured, monomeric CSF1R analyte
Remark: another data set of the same source
Protocol: as §1

Kd [nM] | koff [s⁻¹] | kon [M⁻¹ s⁻¹] | fold of the affinity of hu0301 [fold] | Binder
1.33 | 0.000906 | 683000 |  | B6
1.03 | 0.000758 | 733000 |  | B7
0.913 | 0.000813 | 891000 |  | B8
1.24 | 0.00134 | 1.08e+06 |  | B9
0.948 | 0.00101 | 1.06e+06 |  | B10
1.84 | 0.00137 | 746000 |  | B11
0.557 | 0.000726 | 1.3e+06 | ≤ 2 | B12
0.777 | 0.000833 | 1.07e+06 | ≤ 2 | B13
0.979 | 0.00103 | 1.05e+06 |  | B14
1.46 | 0.000972 | 666000 |  | B15
1.07 | 0.000754 | 705000 |  | B16
1.29 | 0.00103 | 802000 |  | B17
0.785 | 0.00075 | 956000 | ≤ 2 | B18

The binders below were run against T2, monomeric human CSF1R ectodomain protein (assay: AlphaScreen competition with mu0301 IgG4(S228P) for biotinylated monomeric human CSF1R).
Protocol: The AlphaScreen assay (Perkin Elmer) was performed in a 25 μl final volume in 384-well white microtiter plates (Greiner). The reaction buffer contained 1×PBS pH 7.3 (Oxoid, Cat. nr. BR0014G) and 0.05% (v/v) Tween® 20 (Sigma, Cat. nr. P9416). Purified IgG samples were titrated in three fold serial dilutions starting at 500 nM final concentration and incubated with biotinylated human CSF1R for 20 minutes at room temperature. […] The emission of light was measured in the EnVision multilabel plate reader (Perkin Elmer) and analysed using the EnVision manager software. Values were reported as Counts Per Second (CPS) and corrected for crosstalk. The EC50 values were calculated using the […] in GraphPad Prism software (GraphPad Software, La Jolla, Calif.).

IC50 [nM] | fold lower epitope competition than hu0301 [fold] | Binder
4.6 |  | B1
3.92 |  | B2
18.9 | > 2 | B3
3.86 |  | B4
7.74 | > 2 | B5

These binders were tested against T3, human insulin (human, UniProt P01308 25-54; P01308 90-110, limits assumed) (assay: ELISA on human insulin (development risk, polyreactivity), binding score).
T3 construct: Coated antigen of the polyreactivity ('PK-risk indicator') ELISA
T3 sequence (P01308 25-54 limits assumed, chain 1 of 2): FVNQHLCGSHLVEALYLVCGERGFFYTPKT
T3 sequence (P01308 90-110 limits assumed, chain 2 of 2): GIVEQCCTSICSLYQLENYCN

binding result | Binder
no binding | B6
no binding | B7
no binding | B8
no binding | B9
no binding | B10
no binding | B11
no binding | B12
no binding | B15
no binding | B19
no binding | B18
